T1: human ARG2 (Homo sapiens, UniProt P78540, E275H/R327K)
T1 construct: His10 (after a GGG linker) (C); made in house; host or cells: E. coli BL21 (DE3)
T1 sequence (P78540 23-354 E275H/R327K): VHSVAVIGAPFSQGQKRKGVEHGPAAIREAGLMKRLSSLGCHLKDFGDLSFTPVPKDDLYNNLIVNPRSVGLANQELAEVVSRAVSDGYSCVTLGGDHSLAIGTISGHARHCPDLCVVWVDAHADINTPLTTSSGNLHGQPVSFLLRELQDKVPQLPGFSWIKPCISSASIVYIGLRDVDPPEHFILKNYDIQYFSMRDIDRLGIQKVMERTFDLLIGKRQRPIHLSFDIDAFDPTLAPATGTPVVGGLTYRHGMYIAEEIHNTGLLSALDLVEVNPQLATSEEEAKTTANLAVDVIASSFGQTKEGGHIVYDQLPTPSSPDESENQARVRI

T2: human ARG1 (Homo sapiens, UniProt P05089)
T2 construct: Avi tag (N); His10 (after a GGG linker) (C); made in house; host or cells: E. coli BL21 (DE3)
T2 sequence (P05089 with tags, fused parts or gaps): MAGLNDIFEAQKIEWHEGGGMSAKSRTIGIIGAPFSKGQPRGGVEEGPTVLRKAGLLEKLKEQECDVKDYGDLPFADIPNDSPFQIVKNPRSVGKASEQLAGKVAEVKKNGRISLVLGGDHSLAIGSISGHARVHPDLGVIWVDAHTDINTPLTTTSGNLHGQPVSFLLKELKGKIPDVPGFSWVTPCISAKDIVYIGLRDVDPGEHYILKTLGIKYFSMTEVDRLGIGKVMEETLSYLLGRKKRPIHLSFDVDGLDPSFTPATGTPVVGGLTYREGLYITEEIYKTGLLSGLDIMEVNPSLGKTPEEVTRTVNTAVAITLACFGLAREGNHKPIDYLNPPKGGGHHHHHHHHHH

B1: C0021032 Fab (antibody, V domains shown)
VH: EVQLLESGGGLVQPGGSLRLSCAASGFTFSSYAMSWVRQAPGKGLEWVSAYGYGIGSTYYADSVKGRFTISRDNSKNTLYLQMNSLRAEDTAVYYCARLRADLGLYMDLWGRGTLVTVSS
VL: QSVLTQPPSVSAAPGQKVTISCSGSSSNIGNHYVSWYQQLPGTAPKLLIYDNSERPSGIPDRFSGSKSGTSATLGITGLQTGDEADYYCGTWDSSLSALVFGGGTKLTVL
B2: C0021141 Fab (antibody, V domains shown)
VH: EVQLLESGGGLVQPGGSLRLSCAASGFTFYPDPQGWVRQAPGKGLEWVSAYGYGIGSTYYADSVKGRFTISRDNSKNTLYLQMNSLRAEDTAVYYCARLRADLGLYMDLWGRGTLVTVSS
VL: QSVLTQPPSVSAAPGQEVTISCSGSSSNIDNHYVSWYQQLPGTAPKLLIYDNSERPSGIPDRFSGSKSGTSATLGITGLQTGDEADYYCGTWDSSLSALVFGGGTKLTVL
B3: C0021021 Fab (antibody, V domains shown)
VH: EVQLLESGGGLVQPGGSLRLSCAASGFTFSSYAMSWVRQAPGKGLEWVSSILFSPGSTYYADSVKGRFTISRDNSKNTLYLQMNSLRAEDTAVYYCARLRADLGLYMDLWGRGTLVTVSS
VL: QSVLTQPPSVSAAPGQKVTISCSGSSSNIGNHYVSWYQQLPGTAPKLLIYDNSERPSGIPDRFSGSKSGTSATLGITGLQTGDEADYYCGTWDSSLSALVFGGGTKLTVL
B4: C0021101 Fab (antibody, V domains shown)
VH: EVQLLESGGGLVQPGGSLRLSCAASGFTFSSYAMSWVRQAPGKGPEWVSAISGFSPYYADSVKGRFTISRDNSKNTLYLQMNSLRAEDTAVYYCARLRADLGLYMDLWGRGTLVTVSS
VL: QSVLTQPPSVSAAPGQKVTISCSGSSSNIGNHYVSWYQQLPGTAPKLLIYNNRSPTSGIPDRFSGSKSGTSATLGITGLQTGDEADYYCGTWDSSLSALVFGGGTKLTVL
B5: C0021096 Fab (antibody, V domains shown)
VH: EVQLLESGGGLVQPGGSLRLSCAASGFTFSSYAMSWVRQAPGKGLEWVSAISGYSGYYADSVKGRFTISRDNSKNTLYLQMNSLRAEDTAVYYCARLRADLGLYMDLWGRGTLVTVSS
VL: QSVLTQPPSVSAAPGQKVTISCSGSSSNIGNHYVSWYQQLPGTAPKLLIYNTERRMSGIPDRFSGSKSGTSATLGITGLQTGDEADYYCGTWDSSLSALVFGGGTKLTVL
B6: C0021118 Fab (antibody, V domains shown)
VH: EVQLLESGGGLVQPGGSLRLSCAASGFTFSSYAMSWVRQAPGKGLEWVSASLTNPGSTYYADSVKGRFTISRDNSKNTLYLQMNSLRAEDTAVYYCARLRADLGLYMDLWGRGTLVTVSS
VL: QSVLTQPPSVSAAPGQKVTISCSGSSSNIGNHYVSWYQQLPGTAPKLLIYDNSERPSGIPDRFSGSKSGTSATLGITGLQTGDEADYYCATYDTNLSALVFGGGTKLTVL
B7: C0021142 Fab (antibody, V domains shown)
VH: EVQLLESGGGLVQPGGSLRLSCAASGFTFSSYAMSWVRQAPGKGLEWVSAHTHSPGSTYYADSVKGRFTISRDNSKNTLYLQMNSLRAEDTAVYYCARLRADLGLYMDLWGRGTLVTVSS
VL: QSVLTQPPSVSAAPGQKVTISCSGSSSNIGNHYVSWYQQLPGTAPKLLIYDNSERPSGIPDRFSGSKSGTSATLGITGLQTGDEADYYCGTWDSSLSALVFGGGTKLTVL
B8: C0021097 Fab (antibody, V domains shown)
VH: EVQLLESGGGLVQPGGSLRLSCAASGFTFSSYAMSWVRQAPGKGLEWVSAISYHPGSTYYADSVKGRFTISRDNSKNTLYLQMNSLRAEDTAVYYCARLRADLGLYMDLWGRGTLVTVSS
VL: QSVLTQPPSVSAAPGQKVTISCSGSSSNIGNHYVSWYQQLPGTAPKLLIYNTFARPSGIPDRFSGSKSGTSATLGITGLQTGDEADYYCGTWDSSLSALVFGGGTKLTVL
B9: C0021144: anti-ARG2 antibody, VH SEQ ID NO: 252, VL SEQ ID NO: 257 (antibody, listed as Homo sapiens, V domains shown)
VH: EVQLLESGGGLVQPGGSLRLSCAASGFTFRYDYHVWVRQAPGKGLEWVSAISGSGGSTYYADSVKGRFTISRDNSKNTLYLQMNSLRAEDTAVYYCARLRADLGLYMDLWGRGTLVTVSS
VL: QSVLTQPPSVSAAPGQKVTVSCSGSSSNIGNHHVSWYQQLPGTAPKLLIYDTTVLSSGVPDRFSGSKSGTSATLGITGLQTGDEADYYCGTWDELTSNLVFGGGTKLTVL
modifications: C0021144
B10: C0021155: anti-ARG2 antibody, VH SEQ ID NO: 262, VL SEQ ID NO: 267 (antibody, listed as Homo sapiens, V domains shown)
VH: EVQLLESGGGLVQPGGSLRLSCEASGFTFRYDYHVWVRQAPGKGLEWVSAISGSGGSTYYADPVKGRFTISRDNSKNTLYLQMNSLRAEDTAVYYCARLRADLGLYMDLWGRGTLVTVSS
VL: RSVLTQPPSVSAAPGQKVTISCSGSSSNIGNHYVSWYQQLPGTAPKLLIYDTTVLSSGIPDRFSGSKSGTSATLGITGLQTGDEADYYCGTWDELTSNLVFGGGTRLTVL
modifications: C0021155

Each molecule was assayed against T1, human ARG2 (assay: Bio-Layer Interferometry (OctetRED) binding kinetics, human ARG2). Settings: Fab as analyte; streptavidin capture; analyte 1.8 to 120 nM; affinity-matured antibodies.
Text: The OctetRED (Pall ForteBio) instrument was used to assess the kinetic parameters of the interactions between C0020187 and recombinantly produced human ARG2, cynomolgus ARG2 and human ARG1. The Octet biosensor uses an optical analytical technique that analyses the interference pattern of white light reflected from two surfaces: a layer of immobilised protein on the sensor tip, and an internal reference layer. Any changes in binding at the biosensor tip result in a shift in interference pattern, which can be measured in real time. Molecules associating with or dissociating from ligands at the biosensor tip shift the interference pattern and generate a response on the Octet system which is recorded by the acquisition software.
Typically, a defined concentration of the analyte species is brought into contact with the coupled ligand and any binding is detected as an increased in signal (association phase). This is followed by a period of buffer rinse, during which dissociation of the analyte species from the surface immobilised ligand can be observed as a decrease in signal (dissociation phase). Repetition of this with a range of analyte concentrations provides data for the analysis of binding kinetics.
An Octet Kinetics Buffer (PBS containing 0.01% BSA and 0.002% Tween20) is typically used as the diluent buffer for the analyte samples and as the flow buffer during the dissociation phase. The experimental data is recorded over time as shift in interference pattern (nm) over time, which is directly proportional to the optical thickness at the biosensor tip, which in turn is an approximate measure of the mass of analyte bound. The proprietary Octet Data Analysis software package can then be used to process data and fit binding models to the data sets. Returned association (ka, M^−1 s^−1) and dissociation (kd, s^−1) rate constants allow calculation of dissociation (KD, M) affinity constants.
(§1) The affinity of binding between the Fab of C0020187 and human ARG2, cynomolgus ARG2 and human ARG1 was estimated using assays in which the biotinylated ARG antigen was captured on a streptavidin sensor tip. A fresh sensor tip was used for each measurement and no regeneration was used. A series of dilutions of the C0020187 Fab (3.25-240 nM) were individually placed in contact with the ligand surface for a sufficient amount of time to observe sensorgrams that could be fitted to an appropriate binding model with confidence (typically 5 minutes), followed by an appropriate length of dissociation time (typically 10 minutes). Blank reference (0 nM Fab) data were subtracted from each dataset to reduce the impact of any buffer artefacts or non-specific binding effects. An appropriate binding model was then fitted simultaneously to the data from each analyte titration using the Octet Evaluation software.
Example results for C0020187 are shown in Table 9, showing the association rate constants (ka), dissociation rate constants (kd) and dissociation constants (KD). These parameters were derived from a 1:1 binding fit to the data.
The affinities of the affinity-matured antibodies to human ARG2 were measured on the OctetRED system as described in section 1.15 using the streptavidin capture method. Typically, an analyte titration range of 1.8 to 120 nM was used.
The affinities of the second-generation antibodies to human ARG2 were measured on the OctetRED system. A screening assay which stably captures His-tagged ARG2 as the ligand on an anti-His surface was utilised to screen the second-generation candidates as Fabs at an analyte range of 1.8 to 120 nM, with an association time of 5 minutes and a dissociation time of 10 minutes. Sensors were regenerated using 10 mM glycine pH 1.5 after each cycle. Based on this assay, six candidates with estimated affinities in the sub-nanomolar range were identified, and they were further profiled using an extended assay which is more suitable for antibodies of high affinities. […]
Work on B1 yielded a ka of 427000 M⁻¹ s⁻¹ and a kd of 0.00228 s⁻¹. B2 showed a ka of 326000 M⁻¹ s⁻¹ and a kd of 0.00108 s⁻¹. B3 gave a ka of 473000 M⁻¹ s⁻¹ and a kd of 0.002 s⁻¹. B4 showed a ka of 314000 M⁻¹ s⁻¹ and a kd of 0.00107 s⁻¹. B5 gave a ka of 441000 M⁻¹ s⁻¹ and a kd of 0.00154 s⁻¹. In the case of B6, the ka is reported as 139000 M⁻¹ s⁻¹ and the kd is reported as 0.00114 s⁻¹. B7 showed a ka of 399000 M⁻¹ s⁻¹ and a kd of 0.0011 s⁻¹. For B8, the ka was 295000 M⁻¹ s⁻¹ and the kd was 0.00146 s⁻¹.

Same assay, conditions: second-generation Fab; extended assay: association 10 min, dissociation 40 min, 0.47 to 30 nM, streptavidin surface with bio-ARG2
B9 was tested, and the ka was 195000 M⁻¹ s⁻¹ and the kd was 6.59e-05 s⁻¹. Molecule B10 has a ka of 159000 M⁻¹ s⁻¹ and a kd of 5.67e-05 s⁻¹.

The molecules below were run against T2, human ARG1 (assay: Bio-Layer Interferometry (OctetRED) binding, human ARG1). Settings: Fab analyte up to 120 nM, screening assay on anti-His surface.
Procedure: as §1
(§2) The binding of affinity-matured antibodies to human ARG1 was also tested on the OctetRED system using a screening assay which stably captures […] as the ligand on an anti-His surface. The Fabs were typically tested in an analyte range of 1.8 to 120 nM, with an association time of 5 minutes and a dissociation time of 10 minutes. Sensors were regenerated using 10 mM glycine pH 1.5 after each cycle.
as §2, with “Binding” for “The binding”, “the second-generation” for “affinity-matured”, “ARG” for “ARG1”, “were” for “were typically”, “as” for “in an”, “up” for “range of 1.8”
B9 was tested, and the “Results, binding to human ARG1 (BLI)” value was “No binding observed”. In the case of B10, the “Results, binding to human ARG1 (BLI)” value is reported as “No binding observed”.
